US20140296307, “POTENT ANALOGUES OF THE C-MYC INHIBITOR 10074-G5 WITH IMPROVED CELL PERMEABILITY” (University of Maryland, Baltimore, published 2014)

Assays:
[1] = molecular target: Max(L) homodimer (UniProt P61244 P61244:2-160); test: EMSA; 60 nM Max(L), 20 nM DNA; same buffer; 3jc48-3 compound IC50 60.6 uM; conditions: tags: His6; chain copies: 2 (stated homodimer); label: 5'-hexachlorofluorescein
Experimental: (§1) EMSAs. These were performed essentially as described previously (23). Briefly, Ni⁺-agarose-purified His₆-tagged c-Myc bHLH-ZIP domain (residues 353-437) was used for all binding assays as was the His₆-tagged 151 residue isoform of Max, otherwise referred to as Max(S) (residues 2-151) (21). For each binding reaction, the proteins were allowed to heterodimerize at a concentration of 30 nM each in the presence of 20 nM of a 5′-HEX-tagged double-stranded 22-base pair oligonucleotide 5′-hexachlorofluoresceine-[…]-3′ (SEQ ID NO: 1) containing a consensus c-Myc binding site (CACGTG) and the indicated concentration of small molecule inhibitor. Control reactions contained the same oligonucleotide in the presence of 60 nM of the 160 residue isoform of Max referred to as Max(L) (21). All binding reactions were prepared in a buffer consisting of PBS (pH 7.3), 1 mmol/L EDTA, 0.1% NP40, 5% glycerol, 1 mmol/L DTT, and 0.4 mg/mL bovine serum albumin. Electrophoresis was performed on 8% polyacrylamide/bisacrylamide (80:1) gels in […] (23). Each reaction was run on at least three separate occasions.

[2] = molecular target: c-Myc bHLH-ZIP/Max(S) heterodimer (UniProt P01106-1;P61244-2 P01106-1:353-437,P61244-2:2-151); test: EMSA; 30 nM each protein, 20 nM DNA; PBS pH 7.3, 1 mM EDTA, 0.1% NP40, 5% glycerol, 1 mM DTT, 0.4 mg/mL BSA; binding disrupted by 3jc48-3 (compound IC50 34.8 uM); conditions: tags: His6 (Myc His6-TEV tag from pET151, removed by TEV in one protocol), label: 5'-hexachlorofluorescein
c-Myc bHLH-ZIP/Max(S) heterodimer, sequence (P01106 368-452, chain 1 of 2): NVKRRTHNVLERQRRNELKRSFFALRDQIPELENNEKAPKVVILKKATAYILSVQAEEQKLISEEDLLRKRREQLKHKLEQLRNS
c-Myc bHLH-ZIP/Max(S) heterodimer, sequence (P61244 other isoform, or with tags, fused parts or gaps, chain 2 of 2): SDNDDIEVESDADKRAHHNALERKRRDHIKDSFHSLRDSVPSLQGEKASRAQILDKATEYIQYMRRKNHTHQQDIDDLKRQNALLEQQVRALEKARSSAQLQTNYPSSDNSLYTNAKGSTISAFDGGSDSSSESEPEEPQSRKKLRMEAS
Experimental: as §1

Max(L) homodimer, sequence (P61244 2-160, one chain of several): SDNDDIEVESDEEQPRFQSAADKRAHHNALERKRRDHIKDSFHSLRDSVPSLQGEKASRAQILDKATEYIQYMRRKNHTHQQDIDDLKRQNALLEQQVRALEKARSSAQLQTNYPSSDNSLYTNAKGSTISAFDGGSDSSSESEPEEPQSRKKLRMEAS

B1: E-box 22-bp HEX oligonucleotide (dsDNA)
DNA 1: CACCCGGTCACGTGGCCTACAC
DNA 2: GTGTAGGCCACGTGACCGGGTG
B1: binds [1]; binds [2].
